Assay results: a protein production outcome set (Wang et al. 2014)

Assay: label from the status in PepcDB records
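Also: failed if final PepcDB status was selected cloned or expressed and not failed if soluble or beyond.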

Sequence | protein production
MMPKRFNTSGFDTTLRLPSYYGFLHLTQSLTLNSRVFYGARHVTPPAIRIGSNPVQSLLLFRAPTQLTGWNRSSRDLLGRRVSFSDRSDGVDLLSSSPILSTNPNLDDSLTVIALPLPHKPLIPGFYMPIHVKDPKVLAALQESTRQQSPYVGAFLLKDCASTDSSSRSETEDNVVEKFKVKGKPKKKRRKELLNRIHQVGTLAQISSIQGEQVILVGRRRLIIEEMVSEDPLTVRVDHLKDKPYDKDNAVIKASYVEVISTLREVLKTNSLWRDQDIGDFSYQHLADFGAGISGANKHKNQGVLTELDVHKRLELTLELVKKQVEINKIKETDDGSSLSAKIRVRIDTKRDKIPKHVIKVMEEEFTKLEMLEENYSDFDLTYNYLHWLTVLPWGNFSYENFDVLRAKKILDEDHYGLSDVKERILEFIAVGRLRGTSQGKIICLSGPPGVGKTSIGRSIARALDRKFFRFSVGGLSDVAEIKGHCQTYVGAMPGKMVQCLKSVGTANPLILFDEIDKLGRCHTGDPASALLEVMDPEQNAKFLDHFLNVTIDLSKVLFVCTANVIEMIPGPLLDRMEVIDLSGYVTDEKMHIARDYLVKKTCRDCGIKPEHVDLSDAALLSLIENYCREAGVRNLQKQIEKIYRKVALELVRQGAVSFDVTDTKDTKSLAKTDSEVKRMKVADIMKILESATGDSTESKTKQSGLVAKTFEKVMIDESNLADYVGKPVFQEEKIYEQTPVGVVMGLAWTSMGGSTLYIETTFVEEGLGKGGLHITGQLGDVMKESAQIAHTVARRIMFEKEPENLFFANSKLHLHVPEGATPKDGPSAGCTMITSFLSLAMKKLVRKDLAMTGEVTLTGRILPIGGVKEKTIAARRSQIKTIIFPEANRRDFEELAENMKEGLDVHFVDEYEKIFDLAFNYDH | failed
MKITWFGHACFALEMEGKTIVTDPFDESVGYPIPNVTADVVTESHQHFDHNAHHLVKGNFRVIDRPGAYTVNGVKIKGVETFHDPSHGRERGKNIVFVFEGEGIKVCHLGDLGHVLTPAQVEEIGEIDVLLVPVGGTYTIGPKEAKEVADLLNAKVIIPMHYKTKYLKFNLLPVDDFLKLFDSYERVGNILELFEKPKERKVVVMEVQ | not failed
MNQNNHFRLTLSTLLQQCQQDITSLPTAMRAVFSWQRGLNELKTLRRTTKLMMSTMLIVTIIGFILGRDYSLHGWIGLLTGITVVINLILVDQGRLTNYSWGIIACAAWLTTAITNRLIGDIASQSFYLIMQFVGITVWHRKMAAQPDASELTGRKLSKLAGCAWFALAVLVYAIVLHFSKQLNGNQIYLDATLLPLGIVGSVLMVNGYRSQWVAWITLDVINVIIWFNQLKGFSPAAASMLALQLVMLANALYGAYLWFFGQNTQQDKLDTH | failed
IRRKINANVYDKVVLYAPTWRGIHGKATLDIEKLKNDLEKLADQDCHIVFRGHHMIEKLVSEQNISGITIVPSEIDTNELLGAIDILITDYSSIAFDFFVMNRPVIYYAYDIEQYNNERGLYFPLNELPGTVCFNDVELLNTLSGYLRNEIYFDASKGIDKFCKNDDGSVCGKVIEWFFF | failed
MCVSSSIQTAILDWQCVDGIDIPVSRQFGDVYFSKDNGLLETRHVFLNGNNLTERLADLKPYQYFCVGETGFGTGLNILAVWQLWQQVRPDNHSHLHVISVEKFPLSKSDLERALRAWPELIILAEQLIEQYPFPIAGCHRLNFPDERFSLDLWLGDAHDVFPSIVKTHSVDAWFLDGFAPSCNPELWETQVLNQIVRLSDYGTTFASFSVAGILKRGLKAHGIHISRPRGFGHKREMLKAIWPFPDHESTTTVKGNQPSTQQHFAVIGAGIAGLHCAWSLAQRGHRVTLVDQSQPLSGASGNPLALLNPKLCPITQCHDHLMVLCWQYARRFYQNFEAFRLIQVNQLALKASDSLLNLAEQYPKDVLDAHSAQQSPLETQYDYLTLHYAGVISPQLFCNQVLQHPLIEFKQFKINQIIEIDGTVQLLSSEQAILESNAAIVCCARESGKLFEQYPTLKPIRGQVSWFEQHTFPFAPDQAFSYGGYCMQLHPQQLILGASFHPQRDDDEVLLEDHVHNFNLIHSVFPAYAQTLPPVEEWHGRASVRAQSPDYFPLVGQLQDHSKLFTLAGLGSKGYLFAPLNSEILVAHILGEACPVSANLLQKLNPQRFLKKVKIKKPYYSS | failed
MDISSTEIWDAIRRNSFLLYYQPKVDAKTNELIGFEGLIRLKTATAILAPADFFEDIALLNATREMQDFVAETAIEQINQLGGRFSISINIPAHYVVSSNYMTFLYDYVKEHLKYPECLEIEIIERGEITELAVADKNLRKIKKLGVTVSMDDFGKGYSSLAYLRSLPIDIVKTDMSFIALLKTDRKQQIIIQAIVNLCHDLGGKVVTEGVEDIEQVKTLREMKVDYFQGYYFSRPLPMKEIKEKYSIV | failed
MKERILQEIKTRVNRKSWELWFSSFDVKSIEGNKVVFSVGNLFIKEWLEKKYYSVLSKAVKVVLGNDATFEITYEAFEPHSSYSEPLVKKRAVLLTPLNPDYTFENFVVGPGNSFAYHAALEVAKHPGRYNPLFIYGGVGLGKTHLLQSIGNYVVQNEPDLRVMYITSEKFLNDLVDSMKEGKLNEFREKYRKKVDILLIDDVQFLIGKTGVQTELFHTFNELHDSGKQIVICSDREPQKLSEFQDRLVSRFQMGLVAKLEPPDEETRKSIARKMLEIEHGELPEEVLNFVAENVDDNLRRLRGAIIKLLVYKETTGKEVDLKEAILLLKDFIKPNRVKAMDPIDELIEIVAKVTGVPREEILSNSRNVKALTARRIGMYVAKNYLKSSLRTIAEKFNRSHPVVVDSVKKVKDSLLKGNKQLKALIDEVIGEISRRALSGLEHHHHHH | not failed
GPGSMSLKVNILGHEFSNPFMNAAGVLCTTEEDLRRMTESESGSLIGKSCTLAPRTGNPEPRYFGLPLGSINSMGLPNLGVDFYLSYAAQTHDYSRKPLFLSMSGLSVEESVEMVKKLAPITKEKGTILELNLSCPNVPGKPQVGYDFDTTRTYLQKVSEAYGLPFGVKMPPYFDIAHFDMAAAVLNDFPLVKFITCVNSIGNGLVIDPANETVVIKPKQGFGGLGGKYVLPTALANVNAFFRRCPDKLVFGCGGVYSGEEAFLHILAGASMVQVGTALHDEGPIIFARLNKELQEIMTNKGYKTLDEFRGRVKTMD | not failed
MSSLTARWHRSIQEIPEQHWQALVSDHAIPFYRWSWLEALESSGSIIPEQGWQPLHLALWRGDVPIAVAPLYLKGHSYGEFVFDQTFARLAGDLGLRYYPKLLGMSPVSPVLGYRFHVLPGEDEAELTAVLLRAIDAFCEHNSILSCNFLYVDPQWRPLAEAAGCATWLNQQSLWSRGDDQSFDDYLNGFNANQRRNIKRERKAVAKAGLTVTPLTGEQLDLELFQIMHGFYEQHCARWGPWGSKYLEQGFFEALAGLHREQVVLFSAHRGDPREPVAMSMCVRDDHHLWGRYWGSEEEIDCLHFEVCYYAPIEWAISQGIDSFDPGAGGSHKRRRGFVARPHASLHRWYQPQMDGLIRAWLPKVNGLMLEEIEAINAELPFKADAPSLSL | failed
MFGFLRSTTSNDNTLSDTQVNESYRYWRLHIMIGMYIGYAGFYFTRKTFNYAAPAMITDLGLDKGDLGLIGTLFYISYGLSKFLSGTISDRSNPRYFMGLGLIATGLINIAFGFSSSLAAFISLWVLNAWFQGWGWPSCSKLLTTWYSRSERGFRWAIWNTAHNIGGALIPILVGYLTLHYSWREGFILPGIIGVAIGLIVCWRLRDKPTTMGLPSVGKWRNDPLELAQENHGQGLSYREILKTYVFSNKYIWLLAFSYVLVYIVRTAVNDWGNLYLTEEHNYSLINANAALSLFEIGGFVGSLVAGWGSDKLFGGNRGPMNILFAIGIFLSVSALWLMPLTNFVFQAAGLFSVGFFVFGPQMLIGMAAAECSHKDSAGAATGFVGLFAYMGAALSGYPLAVILETYGWTGFFITISTCAAVIGLLLLPFLQAQSPQKPIETRVRL | failed
MGHHHHHHSHMTKREYDQCRIQVRLPDGTSLTQTFRAREQLAAVRLYVELHRGEELGGGQDPVQLLSGFPRRAFSEADMERPLQELGLVPSAVLIVAKKCPS | failed
SSETPAQCSIKQERISYTPPESPVPSYASSTPLHVPVPRALRMEEDSIRLPAHLRLQPIYWSRDDVAQWLKWAENEFSLRPIDSNTFEMNGKALLLLTKEDFRYRSPHSGDVLYELLQHILKQRKPRILFSPFFHPGNSIHTQPEVILHQNHEEDNCVQRTPRPSVDNVHHNPPTIELLHRSRSPITTNHRPSPDPEQRPLRSPLDNMIRRLSPAERAQGPRPHQENNHQESYPLSVSPMENNHCPASSESHPKPSSPRQESTRVIQLMPSPIMHPLILNPRHSVDFKQSRLSEDGLHREGKPINLSHREDLAYMNHIMVSVSPPEEHAMPIGRIADCRLLWDYVYQLLSDSRYENFIRWEDKESKIFRIVDPNGLARLWGNHKNRTNMTYEKMSRALRHYYKLNIIRKEPGQRLLFRFMKTPDEIMSGRTDRLEHLESQELDEQIYQEDEC | not failed
LAMPPGNSHGLEVGSLAEVKENPPFYGVIRWIGQPPGLNEVLAGLELEDECAGCTDGTFRGTRYFTCALKKALFVKLKSCRPDSRFASLQP | not failed
MTRYALLVRGINVGGKNKVVMAELRQELTNLGLEKVESYINSGNIFFTSIDSKAQLVEKLETFFAVHYPFIQSFSLLSLEDFEAELENLPAWWSRDLARKDFLFYTEGLDVDQVIATVESLELKDEVLYFGKLGIFWGKFSEESYSKTAYHKYLLKVPFYRHITIRNAKTFDKIGQMLKK | not failed
MKLIKVILSSISQVVLINNPYTGLFILIGLFAVNWKVGISAMIASVMTWILAPYMNYTKEEIESGLAGFNPVLTAIALTLFLDSNWSGILITFVATILTLPIGAAVREVLKPHKIAFLTSPYVIMTWITLLIPNQLKTLHTQIDIIPEHIEKVSLNNDHTRVHFFQSVLDGFGQIFLMPSIIGGLLILIGIFIGSKKAGIVSIIANIIGFLIIILLGGDYSSINEGIFGYNVVLSAIALGVTFETAIHSYLAMILGIVLTAFIHLGLSTLLAPLGLPTLTWPFIFATWIMLFAGIKNQSV | failed
MIPLSESFESGIPAIWKTIDADGDGYNWMHLTNFTGQSGLCVSSASYIGGVGALTPDNYLITPELKLPTDALVEIIYWVCTQDLTAPSEHYAVYSSSTGNNAADFVNLLYEETLTAKRIQSPELIRGNRTQGVWYQRKVVLPNDTKYVAFRHFNSTDNFWLNLDEVSI | failed
MDDDMDIQQSYPFTVEVMPVPNKVVKGQTVEIRCELKKEGDFSGTLYTIRYFQFEGEGSLKMDNGITFLPNDRYLLENEKFRLYYTAAGDEAHNFIVVVEDNFSNSYELEFDFNNRNVKDDDLTIVPIGNFSPLLKLEHHHHHH | failed
MSDILKFSVVIPVYNGSNTVTRAVDSCLKQTTLPWEIIIVNDCSKDNTLDVLIENYQGNNIVKIYSLPKNSGVSVARNLGWDKATGDFIAFLDADDVWHPSKLEVLNELKHGYKDVSCIAHKYTENSLPEEKKIMPKCKILKFRHFLIRNYFNTSCLAVCKCIGERFNETMRYTEDHDLCLRIANKMNIYYIDLPLTSLGRPQLSKGGLSGNQWAMRKGEMKLYFHACKLRWWLFPCLPLFFLFSIAKHLLKLGMRCMK | failed
MRNVIAAVMASTLALSAYSQAAEVVTSVNWLPGDEGGQRGSQSHMFDGISLTEQQRQQLRDLMQRARHDRLPVNVSEMETMHRLVTAENFDENAVRAQAEKMAQEQVARQVEMAKVRNQMYHLLTPEQQAVLNAKHQQRMDQLREVARMQKGSAMMLSSSSNTLQPQ | failed
GIKDSPVNKVEPNDTLEKVFVSVTKYPDEKRLKGLSKQLDWSVRKIQCWFRHRRNQDKP | not failed
